Reference: paper PMC8600086
Values joined by “and” are separate entries in the source; they are usually repeats but may differ in a detail not shown here. Equal values may be shown once.

Biological target: recombinant MH8SR-tagged PfKelch13^337-726 (Plasmodium falciparum)
Test: SEC

With “recombinant MH8SR-tagged PfKelch13^337-726 (domain or fragment)” the stoichiometry N was 2 and 4.
